In this test the target is human calmodulin (CaM) construct possessing an N-terminal His6 tag (human, UniProt P0DP23 1-149). The test is described as follows: single-molecule TIRF microscopy.

No end group written: not given here.

Regarding C(Alexa Fluor 555 maleimide)KKKKKRFSFKKSFKLSGFSFKKNKK [Human MARCKS PIP2 binding domain peptide (MARCKS residues 151-175) with an added N-terminal cysteine], the binding result is “binds”.
